Data on 2 variants can be found in IntAct's records for PubMed 26053850.

To fix the notation:
B1: ADP-ribosylation factor-binding protein GGA1 (Homo sapiens), Q9UJY5 (parent)
chain: MEPAMEPETLEARINRATNPLNKELDWASINGFCEQLNEDFEGPPLATRLLAHKIQSPQEWEAIQALTVLETCMKSCGKRFHDEVGKFRFLNELIKVVSPKYLGSRTSEKVKNKILELLYSWTVGLPEEVKIAEAYQMLKKQGIVKSDPKLPDDTTFPLPPPRPKNVIFEDEEKSKMLARLLKSSHPEDLRAANKLIKEMVQEDQKRMEKISKRVNAIEEVNNNVKLLTEMVMSHSQGGAAAGSSEDLMKELYQRCERMRPTLFRLASDTEDNDEALAEILQANDNLTQVINLYKQLVRGEEVNGDATAGSIPGSTSALLDLSGLDLPPAGTTYPAMPTRPGEQASPEQPSASVSLLDDELMSLGLSDPTPPSGPSLDGTGWNSFQSSDATEPPAPALAQAPSMESRPPAQTSLPASSGLDDLDLLGKTLLQQSLPPESQQVRWEKQQPTPRLTLRDLQNKSSSCSSPSSSATSLLHTVSPEPPRPPQQPVPTELSLASITVPLESIKPSNILPVTVYDQHGFRILFHFARDPLPGRSDVLVVVVSMLSTAPQPIRNIVFQSAVPKVMKVKLQPPSGTELPAFNPIVHPSAITQVLLLANPQKEKVRLRYKLTFTMGDQTYNEMGDVDQFPPPETWGSL

This assay covers variants of B1. To be noted: with bace1_human BACE1, P56817.
Sequence of bace1_human BACE1, P56817 (P56817 whole entry): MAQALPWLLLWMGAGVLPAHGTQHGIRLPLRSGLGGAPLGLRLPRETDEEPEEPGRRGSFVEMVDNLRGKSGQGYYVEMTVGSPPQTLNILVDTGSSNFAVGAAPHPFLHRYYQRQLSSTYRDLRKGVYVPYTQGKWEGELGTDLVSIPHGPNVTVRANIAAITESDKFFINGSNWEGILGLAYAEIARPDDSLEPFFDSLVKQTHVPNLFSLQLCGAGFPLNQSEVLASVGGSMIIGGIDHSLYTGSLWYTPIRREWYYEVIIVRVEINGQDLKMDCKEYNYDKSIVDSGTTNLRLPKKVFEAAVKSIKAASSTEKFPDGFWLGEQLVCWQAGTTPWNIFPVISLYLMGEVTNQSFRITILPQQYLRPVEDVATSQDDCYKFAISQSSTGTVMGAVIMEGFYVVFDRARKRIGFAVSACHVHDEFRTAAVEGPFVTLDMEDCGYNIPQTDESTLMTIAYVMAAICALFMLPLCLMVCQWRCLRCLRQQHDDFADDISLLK
For S355D, the “effect of a mutation on the interaction” value was “with no effect”.

As to S355A, the “effect of a mutation on the interaction” value is “with no effect”.
